Experimental data: publication PMC4169507
Positions count from the first letter of the chain named. Names and notes keep the numbering of the source.

B1: AafA, major subunit of AAF/II, on wild type EAEC 042 Q43A (protein)
chain: VAKTATSTITVVNFCDITITPATNRDVNVDRSANIDLSFTIRAPQRCADAGMRIKAWGEANHGQLLIKPQGGNKSAGFTLASPRFSYIPNNPANIMNGFVLTNPGVYQLGMQGSITPAIPLRPGLYEVVLNAELVTN
B2: AafA, major subunit of AAF/II, on wild type EAEC 042 T18I (protein)
chain: B1 chain with T18I, A43Q

Molecular target: fibronectin, P02751
Sequence (P02751 32-2477): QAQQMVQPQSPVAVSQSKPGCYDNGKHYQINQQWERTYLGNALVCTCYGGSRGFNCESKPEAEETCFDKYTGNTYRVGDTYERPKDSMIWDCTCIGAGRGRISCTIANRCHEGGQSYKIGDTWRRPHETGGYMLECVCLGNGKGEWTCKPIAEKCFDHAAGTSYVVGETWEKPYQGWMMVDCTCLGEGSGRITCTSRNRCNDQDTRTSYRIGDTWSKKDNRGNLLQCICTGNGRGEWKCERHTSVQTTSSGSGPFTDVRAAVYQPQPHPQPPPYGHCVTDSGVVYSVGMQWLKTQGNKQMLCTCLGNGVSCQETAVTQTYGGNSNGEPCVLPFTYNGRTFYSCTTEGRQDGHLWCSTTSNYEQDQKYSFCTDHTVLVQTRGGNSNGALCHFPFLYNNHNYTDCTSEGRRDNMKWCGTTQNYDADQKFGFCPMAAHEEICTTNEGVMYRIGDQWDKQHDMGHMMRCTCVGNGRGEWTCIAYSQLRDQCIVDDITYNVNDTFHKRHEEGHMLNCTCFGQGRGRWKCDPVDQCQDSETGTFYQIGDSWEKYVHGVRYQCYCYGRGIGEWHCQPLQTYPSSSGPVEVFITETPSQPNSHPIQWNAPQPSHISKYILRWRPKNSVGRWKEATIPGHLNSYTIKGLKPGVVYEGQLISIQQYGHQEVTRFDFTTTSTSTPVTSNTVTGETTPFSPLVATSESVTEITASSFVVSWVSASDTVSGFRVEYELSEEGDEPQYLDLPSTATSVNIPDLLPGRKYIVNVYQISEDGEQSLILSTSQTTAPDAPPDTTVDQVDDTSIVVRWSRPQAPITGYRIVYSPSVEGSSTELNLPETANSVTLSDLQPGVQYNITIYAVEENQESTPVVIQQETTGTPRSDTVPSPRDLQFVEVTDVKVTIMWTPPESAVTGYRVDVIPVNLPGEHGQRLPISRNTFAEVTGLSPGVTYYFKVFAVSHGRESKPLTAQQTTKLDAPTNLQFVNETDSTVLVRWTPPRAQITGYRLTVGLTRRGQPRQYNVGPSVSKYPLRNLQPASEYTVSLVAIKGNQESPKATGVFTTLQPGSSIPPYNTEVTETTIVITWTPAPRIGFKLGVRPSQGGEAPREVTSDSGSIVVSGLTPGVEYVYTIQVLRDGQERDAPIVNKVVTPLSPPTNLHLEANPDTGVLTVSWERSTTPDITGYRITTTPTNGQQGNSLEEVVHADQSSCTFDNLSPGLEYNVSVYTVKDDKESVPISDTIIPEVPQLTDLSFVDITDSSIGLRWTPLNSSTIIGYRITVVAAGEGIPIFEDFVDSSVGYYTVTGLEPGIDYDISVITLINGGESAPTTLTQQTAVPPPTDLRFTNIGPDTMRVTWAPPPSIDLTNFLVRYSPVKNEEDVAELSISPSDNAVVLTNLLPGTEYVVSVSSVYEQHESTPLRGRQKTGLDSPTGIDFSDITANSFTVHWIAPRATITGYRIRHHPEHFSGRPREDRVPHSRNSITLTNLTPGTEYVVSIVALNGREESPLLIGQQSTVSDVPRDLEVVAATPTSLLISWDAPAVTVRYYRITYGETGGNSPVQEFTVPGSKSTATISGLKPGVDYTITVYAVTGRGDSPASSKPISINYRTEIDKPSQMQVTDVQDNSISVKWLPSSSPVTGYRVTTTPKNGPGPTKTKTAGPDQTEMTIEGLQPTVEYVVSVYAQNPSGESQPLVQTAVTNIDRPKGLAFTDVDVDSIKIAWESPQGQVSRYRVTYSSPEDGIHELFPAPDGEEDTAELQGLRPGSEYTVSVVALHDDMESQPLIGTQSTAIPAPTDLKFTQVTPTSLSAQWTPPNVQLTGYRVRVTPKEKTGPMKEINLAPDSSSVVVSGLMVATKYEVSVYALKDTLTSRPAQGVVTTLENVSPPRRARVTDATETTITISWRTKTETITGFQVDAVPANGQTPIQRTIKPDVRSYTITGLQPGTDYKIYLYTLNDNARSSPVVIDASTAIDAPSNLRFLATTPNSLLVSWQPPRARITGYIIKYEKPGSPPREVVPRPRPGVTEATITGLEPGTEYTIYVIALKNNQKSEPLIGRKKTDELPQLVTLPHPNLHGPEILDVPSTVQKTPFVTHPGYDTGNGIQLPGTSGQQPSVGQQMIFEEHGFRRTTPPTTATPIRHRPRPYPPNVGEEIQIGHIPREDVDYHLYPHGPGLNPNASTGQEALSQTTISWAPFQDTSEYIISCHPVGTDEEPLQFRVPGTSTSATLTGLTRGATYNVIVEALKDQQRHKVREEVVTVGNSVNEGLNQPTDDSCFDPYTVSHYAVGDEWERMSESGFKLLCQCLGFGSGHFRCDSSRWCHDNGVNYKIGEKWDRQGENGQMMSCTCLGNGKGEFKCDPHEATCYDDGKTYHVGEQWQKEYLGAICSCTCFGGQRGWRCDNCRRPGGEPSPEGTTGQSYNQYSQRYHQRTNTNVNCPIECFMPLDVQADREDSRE
Assay: bacterial adherence to fibronectin-coated 96-well plates (colony counting)
Details: chain shown with the change; plates coated with 25 µg/ml of fibronectin; in the presence of arabinose; parent: 100; read off a plot

Row | Binder | percent of parent (% of binding to Fn)
1 | B1 | 110
2 | B2 | 65
